Common to all, as to conditions: both partners purified
For test [1], the target named is T1, WT hHsp70 (human HspA1A), full-length (residues 1–641) (human, UniProt P0DMV8 1-641).
T1 construct: The deglutathionylated sample (glutathionylated, then 10 mM DTT) carries no modification and is written as this molecule; the label in the row tells which sample it was; also called HspA1A/B; untreated control (-C); source: monomeric peak collected
Nature of the test: fluorescence polarisation; steady state; 20 nM FAR with increasing hHsp70 or mutant; apo (no nucleotide); Buffer B; RT, 60 min; single site binding model. (In fluorescence polarisation assays a small probe gives low polarisation when free and higher when bound to something large.)

For test [2], the target named is hHsp70-CSSCC (hHsp70 C267S/C306S) (human, UniProt P0DMV8 1-641, C267S | C306S). The test is described as above.
hHsp70-CSSCC (hHsp70 C267S/C306S), sequence (P0DMV8 whole entry C267S/C306S): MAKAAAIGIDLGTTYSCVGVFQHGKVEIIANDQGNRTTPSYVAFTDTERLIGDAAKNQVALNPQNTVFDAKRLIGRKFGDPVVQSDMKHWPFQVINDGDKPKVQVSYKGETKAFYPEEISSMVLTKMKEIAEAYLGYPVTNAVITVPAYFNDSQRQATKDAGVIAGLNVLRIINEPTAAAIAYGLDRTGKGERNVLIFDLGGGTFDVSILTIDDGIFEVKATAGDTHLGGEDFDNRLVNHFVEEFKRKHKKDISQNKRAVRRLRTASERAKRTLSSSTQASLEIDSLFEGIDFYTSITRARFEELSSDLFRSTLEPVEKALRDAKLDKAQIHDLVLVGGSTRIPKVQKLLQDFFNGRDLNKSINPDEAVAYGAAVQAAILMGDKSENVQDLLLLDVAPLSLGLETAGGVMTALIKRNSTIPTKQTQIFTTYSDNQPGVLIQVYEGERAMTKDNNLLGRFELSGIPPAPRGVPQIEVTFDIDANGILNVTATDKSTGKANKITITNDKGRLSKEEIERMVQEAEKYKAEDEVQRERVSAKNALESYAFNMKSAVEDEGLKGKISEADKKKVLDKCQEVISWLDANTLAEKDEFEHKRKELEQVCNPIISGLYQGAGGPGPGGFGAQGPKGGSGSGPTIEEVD
The test “hHsp70-CSSAS (hHsp70 …)” addresses hHsp70-CSSAS (hHsp70 C267S/C306S/C574A/C603S) (human, UniProt P0DMV8 1-641, C267S | C306S | C574A | C603S). Described as above.
In the test “hHsp70-CSSAA (hHsp70 …)” the target is hHsp70-CSSAA (hHsp70 C267S/C306S/C574A/C603A) (human, UniProt P0DMV8 1-641, C267S | C306S | C574A | C603A). The test is described as above.
hHsp70-CSSAA (hHsp70 C267S/C306S/C574A/C603A), sequence (P0DMV8 whole entry C267S/C306S/C574A/C603A): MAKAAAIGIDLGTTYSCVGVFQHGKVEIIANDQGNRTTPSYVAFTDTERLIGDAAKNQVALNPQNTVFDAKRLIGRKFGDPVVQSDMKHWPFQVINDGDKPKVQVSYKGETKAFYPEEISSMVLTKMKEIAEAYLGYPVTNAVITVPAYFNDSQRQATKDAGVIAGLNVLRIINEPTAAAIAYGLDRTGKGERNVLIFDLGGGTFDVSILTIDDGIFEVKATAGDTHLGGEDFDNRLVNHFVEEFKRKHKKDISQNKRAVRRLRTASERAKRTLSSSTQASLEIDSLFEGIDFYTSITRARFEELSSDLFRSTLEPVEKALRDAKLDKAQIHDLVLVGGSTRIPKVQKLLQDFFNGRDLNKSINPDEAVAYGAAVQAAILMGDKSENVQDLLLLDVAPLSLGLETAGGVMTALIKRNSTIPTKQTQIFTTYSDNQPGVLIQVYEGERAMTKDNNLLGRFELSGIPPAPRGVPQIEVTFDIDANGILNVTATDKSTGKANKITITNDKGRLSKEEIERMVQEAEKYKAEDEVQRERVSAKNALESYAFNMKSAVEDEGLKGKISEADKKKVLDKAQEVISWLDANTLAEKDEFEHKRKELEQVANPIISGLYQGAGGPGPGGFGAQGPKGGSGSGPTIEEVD
The target in the test “hHsp70-CSSSS (hHsp70 …)” is hHsp70-CSSSS (hHsp70 C267S/C306S/C574S/C603S) (human, UniProt P0DMV8 1-641, C267S | C306S | C574S | C603S). The description is as above.
Test [3] has as its target hHsp70-CSSAC (hHsp70 C267S/C306S/C574A) (human, UniProt P0DMV8 1-641, C267S | C306S | C574A). Nature of the test: fluorescence polarisation; kinetic time course at RT; 20 nM FAR with 10 μM hHsp70 or mutant, apo or with ADP/ATP (1 mM; 0.5 mM ADP in Fig. 7C); 1 mM diamide with 1 mM GSH added at 60 min, 10 mM DTT at 120 min.
The target in test [4] is hHsp70 T204A (binds but does not hydrolyze ATP) (human, UniProt P0DMV8 1-641, T204A). The test is described as above.
hHsp70 T204A (binds but does not hydrolyze ATP), sequence (P0DMV8 whole entry T204A): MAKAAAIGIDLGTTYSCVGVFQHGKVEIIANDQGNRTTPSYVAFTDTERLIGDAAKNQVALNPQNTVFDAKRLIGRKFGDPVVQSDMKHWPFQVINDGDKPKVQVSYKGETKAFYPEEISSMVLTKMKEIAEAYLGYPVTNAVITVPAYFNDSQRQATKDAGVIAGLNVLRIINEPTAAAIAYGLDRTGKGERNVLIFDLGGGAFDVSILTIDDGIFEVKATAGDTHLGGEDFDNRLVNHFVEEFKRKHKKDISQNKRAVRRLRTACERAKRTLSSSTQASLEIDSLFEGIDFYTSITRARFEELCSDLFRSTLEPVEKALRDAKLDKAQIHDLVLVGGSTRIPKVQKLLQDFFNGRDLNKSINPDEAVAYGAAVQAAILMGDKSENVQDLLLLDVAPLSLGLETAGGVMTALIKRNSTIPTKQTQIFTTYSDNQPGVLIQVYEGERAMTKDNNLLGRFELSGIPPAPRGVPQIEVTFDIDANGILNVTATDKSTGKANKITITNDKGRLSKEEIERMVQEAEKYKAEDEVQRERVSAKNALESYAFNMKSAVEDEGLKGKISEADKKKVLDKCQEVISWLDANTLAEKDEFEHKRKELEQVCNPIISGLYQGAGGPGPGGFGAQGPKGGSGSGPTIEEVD
The target of test [5] is hHsp70-CSSCA (hHsp70 C267S/C306S/C603A) (human, UniProt P0DMV8 1-641, C267S | C306S | C603A). The test is described as above.
hHsp70-CSSCA (hHsp70 C267S/C306S/C603A), sequence (P0DMV8 whole entry C267S/C306S/C603A): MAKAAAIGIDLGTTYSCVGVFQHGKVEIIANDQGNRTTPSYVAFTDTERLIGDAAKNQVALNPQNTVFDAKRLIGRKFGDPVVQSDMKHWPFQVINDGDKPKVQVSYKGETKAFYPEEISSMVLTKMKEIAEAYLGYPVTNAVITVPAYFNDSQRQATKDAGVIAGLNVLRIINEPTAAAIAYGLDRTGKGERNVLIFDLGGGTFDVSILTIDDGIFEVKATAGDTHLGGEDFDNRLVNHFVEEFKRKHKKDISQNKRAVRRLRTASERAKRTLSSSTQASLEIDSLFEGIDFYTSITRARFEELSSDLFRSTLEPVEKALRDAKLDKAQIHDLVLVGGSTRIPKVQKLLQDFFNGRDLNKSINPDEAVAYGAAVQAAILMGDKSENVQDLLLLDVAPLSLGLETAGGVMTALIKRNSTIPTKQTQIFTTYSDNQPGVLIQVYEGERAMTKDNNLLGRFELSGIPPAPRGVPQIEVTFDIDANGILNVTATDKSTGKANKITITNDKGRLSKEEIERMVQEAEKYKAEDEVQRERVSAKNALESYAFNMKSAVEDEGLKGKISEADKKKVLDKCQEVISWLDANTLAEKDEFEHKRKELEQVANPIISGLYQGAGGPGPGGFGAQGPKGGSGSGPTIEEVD
The target in test [6] is T1, WT hHsp70 (human HspA1A), full-length …. Nature of the test: fluorescence polarisation; steady state; 20 nM FAR with increasing hHsp70 (control, glutathionylated or deglutathionylated); 0.5 mM ADP in Buffer B (50 mM Tris-HCl pH 7.5, 100 mM KCl, 5 mM MgCl2); RT, 60 min; single site binding model.

One may read the Kd as a measure of binding affinity in units of concentration. Low values mean a tighter complex, high ones a looser complex.

Where “and” joins values, the source holds several entries; their conditions need not be identical. Equal entries are not always repeated. Ends that are not written are not given here. * marks the point of attachment. FITC = O=C1OC2(c3ccc(O)cc3Oc3cc(O)ccc32)c2ccc(NC(=S)*)cc21

T1 sequence (P0DMV8 whole entry, the tested form may be a part): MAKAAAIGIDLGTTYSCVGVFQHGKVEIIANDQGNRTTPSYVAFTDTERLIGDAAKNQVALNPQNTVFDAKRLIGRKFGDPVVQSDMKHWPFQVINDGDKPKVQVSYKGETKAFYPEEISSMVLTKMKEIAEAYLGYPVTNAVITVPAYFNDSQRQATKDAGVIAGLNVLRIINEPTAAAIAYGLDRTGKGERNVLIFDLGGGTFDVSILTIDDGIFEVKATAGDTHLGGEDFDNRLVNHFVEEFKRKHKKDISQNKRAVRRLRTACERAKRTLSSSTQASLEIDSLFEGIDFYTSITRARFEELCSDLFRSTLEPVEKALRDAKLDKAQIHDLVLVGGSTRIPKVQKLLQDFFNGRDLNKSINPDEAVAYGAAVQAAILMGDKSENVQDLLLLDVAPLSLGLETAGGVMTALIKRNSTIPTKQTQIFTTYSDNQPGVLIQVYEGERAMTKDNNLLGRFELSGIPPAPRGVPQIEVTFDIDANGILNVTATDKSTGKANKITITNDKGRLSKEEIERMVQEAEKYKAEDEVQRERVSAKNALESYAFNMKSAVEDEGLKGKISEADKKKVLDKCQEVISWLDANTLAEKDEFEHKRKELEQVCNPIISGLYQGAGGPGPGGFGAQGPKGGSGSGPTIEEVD
hHsp70-CSSAC (hHsp70 C267S/C306S/C574A), sequence (P0DMV8 whole entry C267S/C306S/C574A): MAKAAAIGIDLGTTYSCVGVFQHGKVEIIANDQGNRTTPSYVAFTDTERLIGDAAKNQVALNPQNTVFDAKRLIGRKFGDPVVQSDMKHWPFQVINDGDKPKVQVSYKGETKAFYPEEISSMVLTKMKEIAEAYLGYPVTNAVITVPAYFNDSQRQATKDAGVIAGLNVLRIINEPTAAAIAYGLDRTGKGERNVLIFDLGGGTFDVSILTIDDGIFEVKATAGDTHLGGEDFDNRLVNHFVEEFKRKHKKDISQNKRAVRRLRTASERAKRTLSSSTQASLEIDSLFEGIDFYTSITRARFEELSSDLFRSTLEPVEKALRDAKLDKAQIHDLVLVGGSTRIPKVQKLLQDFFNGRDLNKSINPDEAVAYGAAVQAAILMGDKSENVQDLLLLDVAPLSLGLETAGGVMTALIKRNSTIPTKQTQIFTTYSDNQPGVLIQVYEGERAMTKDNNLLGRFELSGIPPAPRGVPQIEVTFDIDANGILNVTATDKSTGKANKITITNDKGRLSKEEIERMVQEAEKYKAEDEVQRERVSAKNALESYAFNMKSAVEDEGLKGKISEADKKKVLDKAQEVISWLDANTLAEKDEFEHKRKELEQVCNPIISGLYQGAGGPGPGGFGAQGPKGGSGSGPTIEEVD
hHsp70-CSSAS (hHsp70 C267S/C306S/C574A/C603S), sequence (P0DMV8 whole entry C267S/C306S/C574A/C603S): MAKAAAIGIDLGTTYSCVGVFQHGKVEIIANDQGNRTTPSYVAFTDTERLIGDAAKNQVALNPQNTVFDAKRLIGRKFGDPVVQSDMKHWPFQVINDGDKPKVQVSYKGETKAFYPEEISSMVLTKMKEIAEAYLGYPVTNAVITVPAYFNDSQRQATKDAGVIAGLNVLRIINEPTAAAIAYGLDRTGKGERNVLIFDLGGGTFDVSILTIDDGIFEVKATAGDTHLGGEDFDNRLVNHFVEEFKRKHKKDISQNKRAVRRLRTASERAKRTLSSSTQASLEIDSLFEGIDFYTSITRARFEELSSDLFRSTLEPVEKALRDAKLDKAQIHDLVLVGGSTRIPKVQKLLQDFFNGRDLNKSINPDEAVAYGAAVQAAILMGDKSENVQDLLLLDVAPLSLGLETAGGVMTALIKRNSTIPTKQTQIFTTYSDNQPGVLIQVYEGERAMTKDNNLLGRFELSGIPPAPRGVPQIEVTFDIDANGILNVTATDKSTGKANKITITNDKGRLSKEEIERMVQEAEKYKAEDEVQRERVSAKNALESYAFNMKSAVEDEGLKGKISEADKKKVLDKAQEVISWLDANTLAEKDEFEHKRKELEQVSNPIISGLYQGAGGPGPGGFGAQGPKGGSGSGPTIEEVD

For the molecule {FITC}-ALLLSAPRR (fluorescently labeled peptide substrate) [FITC-labeled ALLLSAPRR (FAR) peptide], the Kd was 1.12 ± 0.12 µM in [1]; 1.35 ± 0.23 µM in test [2]; 1.44 ± 0.54 µM with hHsp70-CSSAS (hHsp70 …); 1.19 ± 0.21 µM with hHsp70-CSSAA (hHsp70 …); 1.07 µM and 1.2 µM in test [6]. The binding result (with hHsp70-CSSSS (hHsp70 …); in test [3]; in [4]; in test [5]) was “binds” throughout.
